Assay results taken from the Human Domainome abundance scans (Beltran et al. 2025).
± gives the uncertainty stated by the source.

B1: CD2-associated protein, residues 271 to 331; numbered along this chain, Q9Y5K6 (parent)
chain: KEYCRTLFAYEGTNEDELTFKEGEIIHLISKETGEAGWWRGELNGKEGVFPDNFAVQINEL

Variants of: B1
Test: abundance fitness (aPCA) (normalised: wild type 0, dead -1); higher = more abundant; growth selection in yeast, the domain comes from the species named
Conditions: Homo sapiens

| Variant | abundance fitness |
| --- | --- |
| KEYCRTLFAYEGTNEDELTFKEGEIIHLISKETGEAGWWRGELNGKEGVFPDNCAVQINEL [F54C] | 0.084 ± 0.17 |
| KEYCRTLFAYEGTNEDELTFKEGEIIHLISKETGEAGWWRGELNGKEGVFPDNLAVQINEL [F54L] | 0.037 ± 0.06 |
| KEYCRTLFAYEGTNEDELTFKEGEIIHLISKETGEAGWWRGELNGKEGVFPDNIAVQINEL [F54I] | -0.191 ± 0.11 |
| KEYCRTLFAYEGTNEDELTFKEGEIIHLISKETGEAGWWRGELNGKEGVFPDNHAVQINEL [F54H] | -0.018 ± 0.1 |
| KEYCRTLFAYEGTNEDELTFKEGEIIHLISKETGEAGWWRGELNGKEGVFPDNMAVQINEL [F54M] | -0.079 ± 0.08 |
| KEYCRTLFAYEGTNEDELTFKEGEIIHLISKETGEAGWWRGELNGKEGVFPDNSAVQINEL [F54S] | 0.099 ± 0.067 |
| KEYCRTLFAYEGTNEDELTFKEGEIIHLISKETGEAGWWRGELNGKEGVFPDNPAVQINEL [F54P] | -0.572 ± 0.12 |
| KEYCRTLFAYEGTNEDELTFKEGEIIHLISKETGEAGWWRGELNGKEGVFPDNWAVQINEL [F54W] | -0.296 ± 0.13 |
| KEYCRTLFAYEGTNEDELTFKEGEIIHLISKETGEAGWWRGELNGKEGVFPDNRAVQINEL [F54R] | -0.004 ± 0.069 |
| KEYCRTLFAYEGTNEDELTFKEGEIIHLISKETGEAGWWRGELNGKEGVFPDNEAVQINEL [F54E] | -0.632 ± 0.13 |
| KEYCRTLFAYEGTNEDELTFKEGEIIHLISKETGEAGWWRGELNGKEGVFPDNVAVQINEL [F54V] | 0.011 ± 0.053 |
| KEYCRTLFAYEGTNEDELTFKEGEIIHLISKETGEAGWWRGELNGKEGVFPDNQAVQINEL [F54Q] | -0.347 ± 0.13 |
| KEYCRTLFAYEGTNEDELTFKEGEIIHLISKETGEAGWWRGELNGKEGVFPDNNAVQINEL [F54N] | -0.625 ± 0.3 |
| KEYCRTLFAYEGTNEDELTFKEGEIIHLISKETGEAGWWRGELNGKEGVFPDNTAVQINEL [F54T] | -0.088 ± 0.076 |
| KEYCRTLFAYEGTNEDELTFKEGEIIHLISKETGEAGWWRGELNGKEGVFPDNAAVQINEL [F54A] | 0.162 ± 0.062 |
| KEYCRTLFAYEGTNEDELTFKEGEIIHLISKETGEAGWWRGELNGKEGVFPDNKAVQINEL [F54K] | 0.044 ± 0.081 |
| KEYCRTLFAYEGTNEDELTFKEGEIIHLISKETGEAGWWRGELNGKEGVFPDNGAVQINEL [F54G] | -0.32 ± 0.091 |
| KEYCRTLFAYEGTNEDELTFKEGEIIHLISKETGEAGWWRGELNGKEGVFPDCFAVQINEL [N53C] | -0.138 ± 0.044 |
| KEYCRTLFAYEGTNEDELTFKEGEIIHLISKETGEAGWWRGELNGKEGVFPDMFAVQINEL [N53M] | -0.198 ± 0.09 |
| KEYCRTLFAYEGTNEDELTFKEGEIIHLISKETGEAGWWRGELNGKEGVFPDHFAVQINEL [N53H] | -0.032 ± 0.065 |
| KEYCRTLFAYEGTNEDELTFKEGEIIHLISKETGEAGWWRGELNGKEGVFPDYFAVQINEL [N53Y] | -0.084 ± 0.054 |
| KEYCRTLFAYEGTNEDELTFKEGEIIHLISKETGEAGWWRGELNGKEGVFPDPFAVQINEL [N53P] | -0.365 ± 0.084 |

| Variant | abundance fitness |
| --- | --- |
| KEYCRTLFAYEGTNEDELTFKEGEIIHLISKETGEAGWWRGELNGKEGVFPDEFAVQINEL [N53E] | -0.036 ± 0.11 |
| KEYCRTLFAYEGTNEDELTFKEGEIIHLISKETGEAGWWRGELNGKEGVFPDRFAVQINEL [N53R] | 0.038 ± 0.055 |
| KEYCRTLFAYEGTNEDELTFKEGEIIHLISKETGEAGWWRGELNGKEGVFPDWFAVQINEL [N53W] | -0.355 ± 0.14 |
| KEYCRTLFAYEGTNEDELTFKEGEIIHLISKETGEAGWWRGELNGKEGVFPDFFAVQINEL [N53F] | -0.14 ± 0.059 |
| KEYCRTLFAYEGTNEDELTFKEGEIIHLISKETGEAGWWRGELNGKEGVFPDAFAVQINEL [N53A] | -0.003 ± 0.052 |
| KEYCRTLFAYEGTNEDELTFKEGEIIHLISKETGEAGWWRGELNGKEGVFPDTFAVQINEL [N53T] | 0.027 ± 0.065 |
| KEYCRTLFAYEGTNEDELTFKEGEIIHLISKETGEAGWWRGELNGKEGVFPDVFAVQINEL [N53V] | -0.185 ± 0.049 |
| KEYCRTLFAYEGTNEDELTFKEGEIIHLISKETGEAGWWRGELNGKEGVFPDLFAVQINEL [N53L] | -0.133 ± 0.059 |
| KEYCRTLFAYEGTNEDELTFKEGEIIHLISKETGEAGWWRGELNGKEGVFPDDFAVQINEL [N53D] | -0.094 ± 0.062 |
| KEYCRTLFAYEGTNEDELTFKEGEIIHLISKETGEAGWWRGELNGKEGVFPDSFAVQINEL [N53S] | 0.012 ± 0.042 |
| KEYCRTLFAYEGTNEDELTFKEGEIIHLISKETGEAGWWRGELNGKEGVFPDQFAVQINEL [N53Q] | -0.051 ± 0.092 |
| KEYCRTLFAYEGTNEDELTFKEGEIIHLISKETGEAGWWRGELNGKEGVFPDIFAVQINEL [N53I] | -0.193 ± 0.054 |
| KEYCRTLFAYEGTNEDELTFKEGEIIHLISKETGEAGWWRGELNGKEGVFPDKFAVQINEL [N53K] | 0.133 ± 0.18 |
| KEYCRTLFAYEGTNEDELTFKEGEIIHLISKETGEAGWWRGELNGKEGVFPDNFGVQINEL [A55G] | -0.322 ± 0.093 |
| KEYCRTLFAYEGTNEDELTFKEGEIIHLISKETGEAGWWRGELNGKEGVFPDNFDVQINEL [A55D] | -0.671 ± 0.14 |
| KEYCRTLFAYEGTNEDELTFKEGEIIHLISKETGEAGWWRGELNGKEGVFPDNFIVQINEL [A55I] | -0.274 ± 0.13 |
| KEYCRTLFAYEGTNEDELTFKEGEIIHLISKETGEAGWWRGELNGKEGVFPDNFEVQINEL [A55E] | -0.726 ± 0.13 |
| KEYCRTLFAYEGTNEDELTFKEGEIIHLISKETGEAGWWRGELNGKEGVFPDNFHVQINEL [A55H] | -1.01 ± 0.3 |
| KEYCRTLFAYEGTNEDELTFKEGEIIHLISKETGEAGWWRGELNGKEGVFPDNFFVQINEL [A55F] | -0.492 ± 0.19 |
| KEYCRTLFAYEGTNEDELTFKEGEIIHLISKETGEAGWWRGELNGKEGVFPDNFKVQINEL [A55K] | -0.92 ± 0.17 |
| KEYCRTLFAYEGTNEDELTFKEGEIIHLISKETGEAGWWRGELNGKEGVFPDNFLVQINEL [A55L] | -0.573 ± 0.068 |
| KEYCRTLFAYEGTNEDELTFKEGEIIHLISKETGEAGWWRGELNGKEGVFPDNFCVQINEL [A55C] | -0.058 ± 0.096 |
